For this test, the target named is T1, biotinylated human DLL3 protein expressed as a human IgG1 fusion protein (human, UniProt Q9NYJ7 27-492, limits assumed, biotinylated).
T1 sequence: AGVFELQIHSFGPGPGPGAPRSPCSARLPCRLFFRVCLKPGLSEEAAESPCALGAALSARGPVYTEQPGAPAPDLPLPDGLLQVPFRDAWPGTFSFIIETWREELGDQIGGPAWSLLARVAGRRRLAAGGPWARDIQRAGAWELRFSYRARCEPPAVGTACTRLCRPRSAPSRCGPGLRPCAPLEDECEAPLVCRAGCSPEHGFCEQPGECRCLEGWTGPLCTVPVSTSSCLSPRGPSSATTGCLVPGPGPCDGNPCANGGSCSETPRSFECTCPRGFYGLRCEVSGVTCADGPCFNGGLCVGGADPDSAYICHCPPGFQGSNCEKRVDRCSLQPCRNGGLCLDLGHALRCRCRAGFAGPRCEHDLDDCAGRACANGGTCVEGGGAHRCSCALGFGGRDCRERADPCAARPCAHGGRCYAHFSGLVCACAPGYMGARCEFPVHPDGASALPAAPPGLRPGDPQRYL
Nature of the test: Octet BLI, single 50 nM. The protocol:
Using the conditioned medium with known concentrations of the anti-DLL3 trispecific proteins, the binding affinities of the anti-DLL3 trispecific proteins toward human DLL3 protein were measured using a method where biotinylated version of human DLL3 protein were expressed as a human IgG1 fusion protein, and the binding affinity measurement was carried out in an Octet instrument with streptavidin tips.
(Biolayer interferometry detects binding as a change in optical thickness at a sensor tip.)

B1: 1C07 anti-DLL3 trispecific protein (other)
chain: EVQLVESGGGLVQPGGSLTLSCVASGSTSSINAMAWYRRAPGKQRELVAGISSDGSKVYADSVKGRFTISRDNAKNSVYLQMNSLRAEDTAVYYCYYFRTVSGSSMRYWGQGTLVTVSS
notes: not shown: linker 1808, anti-albumin sdAb, linker 1808, anti-CD3 fragment, His6 1819
As usually defined, the Kd is the free concentration of one partner at which half of the binding sites on the other are occupied at equilibrium, for simple one-to-one binding. A high value points to weaker binding. In turn, B1 had a Kd of 7.1 nM.

B2: 1B03 anti-DLL3 trispecific protein (other)
chain: EVQLVESGGGLVQPGGSLTLSCVASGKTSSINAMAWYRRAPGKQRELVAGISSDGSKVYTDSVKGRFTISRDNAKNSVYLQMNSLRAEDTAVYYCYYFRTVSGSSARYWGQGTLVTVSS
notes: as for B1
Take B2: binding was characterised by a dissociation constant (Kd) of 8.7 nM.

B3: 1A05 anti-DLL3 trispecific protein (other)
chain: EVQLVESGGGLVQPGGSLTLSCVASGSPSSINAMGWYRRAPGKQRELSAGISSDGSKVYADSVKGRFTISRDNAKNSVYLQMNSLRAEDTAVYYCYYFRTVRGSSMSYWGQGTLVTVSS
notes: as for B1
B3 showed a dissociation constant (Kd) of 4 nM.

B4: 1A012 anti-DLL3 trispecific protein (other)
chain: EVQLVESGGGLVQPGGSLTLSCVASGSTSSINAMAWYRRAPGKQRELVAGISSDGSKVYSDSVKGRFTISRDNAKNSVYLQMNSLRAEDTAVYYCYYFRTVLGSSMRYWGQGTLVTVSS
notes: as for B1
For B4, binding was put at a Kd of 4.9 nM.

B5: 1B08 anti-DLL3 trispecific protein (other)
chain: EVQLVESGGGLVQPGGSLTLSCVASGTTSSINAMGWYRRAPGKQRELVAGISSDGSKVYVDSVKGRFTISRDNAKNSVYLQMNSLRAEDTAVYYCYYFRFVSGSSMRYWGQGTLVTVSS
notes: as for B1
On to B5, for which the dissociation constant Kd was 12 nM.

B6: 1B04 anti-DLL3 trispecific protein (other)
chain: EVQLVESGGGLVQPGGSLTLSCVASGTTSSINAMGWYRRAPGKQRELVAGISSDGSLVYADSVKGRFTISRDNAKNSVYLQMNSLRAEDTAVYYCYYFRIVRGSSMRYWGQGTLVTVSS
notes: as for B1
Molecule B6 came in with a Kd of 11 nM.

B7: 1A07 anti-DLL3 trispecific protein (other)
chain: EVQLVESGGGLVQPGGSLTLSCVASGSISSINAMGWYRRAPGKQRELVAGISSDGSKVYADSVKGRFTISRDNAKNSVYLQMNSLRAEDTAVYYCYYFRMVSGSSMRYWGQGTLVTVSS
notes: as for B1
Turning to B7, the affinity, expressed as Kd, was 8.6 nM.

B8: 1B01 anti-DLL3 trispecific protein (other)
chain: EVQLVESGGGLVQPGGSLTLSCVASGSTSIINAMGWYRRAPGKQRELAAGISSDGSKVIADSVKGRFTISRDNAKNSVYLQMNSLRAEDTAVYYCYYFRRVSGSSMRYWGQGTLVTVSS
notes: as for B1
B8 displayed a Kd of 5.2 nM.

B9: 1A010 anti-DLL3 trispecific protein (other)
chain: EVQLVESGGGLVQPGGSLTLSCVASGSTSSINAYGWYRRAPGKQRELVAGISSDGSKVYADSVKGRFTISRDNAKNSVYLQMNSLRAEDTAVYYCYYFRTVYGSSMRYWGQGTLVTVSS
notes: as for B1
B9 registered a Kd of 6.5 nM. The Kd values of the last two molecules are within 1.5-fold of each other.

B10: 1B010 anti-DLL3 trispecific protein (other)
chain: EVQLVESGGGLVQPGGSLTLSCVASGSTSRINAMGWYRRAPGKQRELVAGISSDGSKVYADSVKGRFTISRDNAKNSVYLQMNSLRAEDTAVYYCYYFRTKSGSSMRYWGQGTLVTVSS
notes: as for B1
In the case of B10, the Kd worked out at 6.8 nM.

B11: 1C05 anti-DLL3 trispecific protein (other)
chain: EVQLVESGGGLVQPGGSLTLSCVASGSTSSINAMAWYRRAPGKQRELVAGISSDGSKVYADSVKGRFTISRDNAKNSVYLQMNSLRAEDTAVYYCYYFRTVSGSHMRYWGQGTLVTVSS
notes: as for B1
In turn, B11 yielded a Kd of 5.3 nM.

B12: 1C04 anti-DLL3 trispecific protein (other)
chain: EVQLVESGGGLVQPGGSLTLSCVASGNTSSINAMAWYRRAPGKQRELVAGISSDGSKVYADSVKGRFTISRDNAKNSVYLQMNSLRAEDTAVYYCYYFRTVSGSSMRYWGQGTLVTVSS
notes: as for B1
As to B12, the Kd was 8.1 nM.

B13: 1B05 anti-DLL3 trispecific protein (other)
chain: EVQLVESGGGLVQPGGSLTLSCVASGSTSSINAMAWYRRAPGKQRELVAGISSDGSKVYADSVKGRFTISRDNAKNSVYLQMNSLRAEDTAVYYCYYYRTVSGSSMRYWGQGTLVTVSS
notes: as for B1
Molecule B13 showed a Kd of 8 nM.

B14: 1D01 anti-DLL3 trispecific protein (other)
chain: EVQLVESGGGLVQPGGSLTLSCVASGSTSDINAMGWYRRAPGKQRELVAGISSDKSKVYADSVKGRFTISRDNAKNSVYLQMNSLRAEDTAVYYCYYFRTVRGSSMRYWGQGTLVTVSS
notes: as for B1
For the molecule B14, the dissociation constant Kd amounted to 5.8 nM.

B15: 1C01 anti-DLL3 trispecific protein (other)
chain: EVQLVESGGGLVQPGGSLTLSCVASGSTSSINAMGWYRRAPGKQRELVAGISSDGSKVYRDSVKGRFTISRDNAKNSVYLQMNSLRAEDTAVYYCYYFRTVSGSSMGYWGQGTLVTVSS
notes: as for B1
On to B15, for which binding was characterised by a dissociation constant (Kd) of 4.3 nM.

B16: 1C08 anti-DLL3 trispecific protein (other)
chain: EVQLVESGGGLVQPGGSLTLSCVASGSTSRINAMGWYRRAPGKQRELPAGISSDGSKVYAVSVKGRFTISRDNAKNSVYLQMNSLRAEDTAVYYCYYFRTVSGSPMRYWGQGTLVTVSS
notes: as for B1
In the case of B16, the Kd came to 25 nM.

B17: 1B02 anti-DLL3 trispecific protein (other)
chain: EVQLVESGGGLVQPGGSLTLSCVASGSTSSINAMGWYRRAPGKQRELVAGISSDGSKIYADSVKGRFTISRDNAKNSVYLQMNSLRAEDTAVYYCYYFRTVSGSSMRYWGQGTLVTVSS
notes: as for B1
As to B17, binding was put at a Kd of 11 nM.

B18: 1A01 anti-DLL3 trispecific protein (other)
chain: EVQLVESGGGLVQPGGSLTLSCVASGFTSSINAMGWYRRAPGKQRELVAGISSDGSFVYADSVKGRFTISRDNAKNSVYLQMNSLRAEDTAVYYCYYFRHVSGSSMRYWGQGTLVTVSS
notes: as for B1
B18 had a dissociation constant (Kd) of 7 nM. Against the preceding molecule, the Kd is about 1.6-fold lower.

B19: 1A09 anti-DLL3 trispecific protein (other)
chain: EVQLVESGGGLVQPGGSLTLSCVASGSTSSINAMAWYRRAPGKQRELVAGISSDGSKLYADSVKGRFTISRDNAKNSVYLQMNSLRAEDTAVYYCYYFRTVQGSSMRYWGQGTLVTVSS
notes: as for B1
Molecule B19 yielded a Kd of 6.6 nM.

B20: 1C012 anti-DLL3 trispecific protein (other)
chain: EVQLVESGGGLVQPGGSLTLSCVASGITSSINAMGWYRRAPGKQRELVAGISSDGSKVYAGSVKGRFTISRDNAKNSVYLQMNSLRAEDTAVYYCYYFRTVRGSSMRYWGQGTLVTVSS
notes: as for B1
In turn, B20 returned an equilibrium dissociation constant (Kd) of 8.5 nM. This Kd and that of the molecule before are within 1.5-fold of each other.

B21: 1B011 anti-DLL3 trispecific protein (other)
chain: EVQLVESGGGLVQPGGSLTLSCVASGSTSRINAMGWYRRAPGKQRELVAGISSDGSKVYADSVKGRFTISRDNAKNSVYLQMNSLRAEDTAVYYCYYFRTVYGSSMRYWGQGTLVTVSS
notes: as for B1
B21 came in with an equilibrium dissociation constant (Kd) of 5.7 nM.

B22: 1C06 anti-DLL3 trispecific protein (other)
chain: EVQLVESGGGLVQPGGSLTLSCVASGSTSIINAMGWYRRAPGKQRELVAGISSDGSKVYEDSVKGRFTISRDNAKNSVYLQMNSLRAEDTAVYYCYYFRAVSGSSMRYWGQGTLVTVSS
notes: as for B1
Take B22: the dissociation constant Kd came out at 8.3 nM. The Kd values of the last two molecules are within 1.5-fold of each other.

B23: 1B07 anti-DLL3 trispecific protein (other)
chain: EVQLVESGGGLVQPGGSLTLSCVASGSGSSINAMGWYRRAPGKQRELVAGISSDGSKVYSDSVKGRFTISRDNAKNSVYLQMNSLRAEDTAVYYCYYFRHVSGSSMRYWGQGTLVTVSS
notes: as for B1
The molecule B23 displayed a dissociation constant Kd of 8.9 nM.

B24: 1C010 anti-DLL3 trispecific protein (other)
chain: EVQLVESGGGLVQPGGSLTLSCVASGSTSRINAMGWYRRAPGKQRELVAGVSSDGSKVYADSVKGRFTISRDNAKNSVYLQMNSLRAEDTAVYYCYYFRTVSGSSMSYWGQGTLVTVSS
notes: as for B1
B24 showed an equilibrium dissociation constant (Kd) of 2.5 nM.

B25: 1A03 anti-DLL3 trispecific protein (other)
chain: EVQLVESGGGLVQPGGSLTLSCVASGSTSSINAMAWYRRAPGKQRELVAGISSDGSKVYADSVKGRFTISRDNAKNSVYLQMNSLRAEDTAVYYCYYFRTVSGSSSRYWGQGTLVTVSS
notes: as for B1
As for B25, the Kd amounted to 6.3 nM.

B26: 1C011 anti-DLL3 trispecific protein (other)
chain: EVQLVESGGGLVQPGGSLTLSCVASGTTSSINAMGWYRRAPGKQRELVAGISSDGSKVYEDSVKGRFTISRDNAKNSVYLQMNSLRAEDTAVYYCYYFRTVSGSSMRYWGQGTLVTVSS
notes: as for B1
B26: the affinity, expressed as Kd, was 7.6 nM.

B27: 1A06 anti-DLL3 trispecific protein (other)
chain: EVQLVESGGGLVQPGGSLTLSCVASGSTSSINAMGWYRRAPGKQRELAAGISSDGSSVYADSVKGRFTISRDNAKNSVYLQMNSLRAEDTAVYYCYYFRTVSGSSKRYWGQGTLVTVSS
notes: as for B1
Turning to B27, the Kd worked out at 5.6 nM.

B28: 1B09 anti-DLL3 trispecific protein (other)
chain: EVQLVESGGGLVQPGGSLTLSCVASGSTSSINAMAWYRRAPGKQRELVAGISSDGSKVYVDSVKGRFTISRDNAKNSVYLQMNSLRAEDTAVYYCYYFRTVSGSSMRYWGQGTLVTVSS
notes: as for B1
Consider B28, for which the dissociation constant (Kd) stood at 5.4 nM.

B29: 1A04 anti-DLL3 trispecific protein (other)
chain: EVQLVESGGGLVQPGGSLTLSCVASGSTSSINAMGWYRRAPGKQRELVAGISSDGSKVYEDSVKGRFTISRDNAKNSVYLQMNSLRAEDTAVYYCYYFRTVSGSSMRYWGQGTLVTVSS
notes: as for B1
B29 had a Kd of 7.8 nM.

B30: 1C02 anti-DLL3 trispecific protein (other)
chain: EVQLVESGGGLVQPGGSLTLSCVASGSTSSINAMAWYRRAPGKQRELVAGISSDGSKVYSDSVKGRFTISRDNAKNSVYLQMNSLRAEDTAVYYCYYFRTVSGSSMRSWGQGTLVTVSS
notes: as for B1
For B30, the affinity, expressed as Kd, was 6.2 nM.

These data come from US20240141072A1 (published 2024).
